The text below walks through data of patent US20150344580A1 (MSM PROTEIN TECHNOLOGIES, published 2015).

Assay [1] has as its target T1, human CD22 (human, UniProt P20273 20-847).
T1 sequence (looked up): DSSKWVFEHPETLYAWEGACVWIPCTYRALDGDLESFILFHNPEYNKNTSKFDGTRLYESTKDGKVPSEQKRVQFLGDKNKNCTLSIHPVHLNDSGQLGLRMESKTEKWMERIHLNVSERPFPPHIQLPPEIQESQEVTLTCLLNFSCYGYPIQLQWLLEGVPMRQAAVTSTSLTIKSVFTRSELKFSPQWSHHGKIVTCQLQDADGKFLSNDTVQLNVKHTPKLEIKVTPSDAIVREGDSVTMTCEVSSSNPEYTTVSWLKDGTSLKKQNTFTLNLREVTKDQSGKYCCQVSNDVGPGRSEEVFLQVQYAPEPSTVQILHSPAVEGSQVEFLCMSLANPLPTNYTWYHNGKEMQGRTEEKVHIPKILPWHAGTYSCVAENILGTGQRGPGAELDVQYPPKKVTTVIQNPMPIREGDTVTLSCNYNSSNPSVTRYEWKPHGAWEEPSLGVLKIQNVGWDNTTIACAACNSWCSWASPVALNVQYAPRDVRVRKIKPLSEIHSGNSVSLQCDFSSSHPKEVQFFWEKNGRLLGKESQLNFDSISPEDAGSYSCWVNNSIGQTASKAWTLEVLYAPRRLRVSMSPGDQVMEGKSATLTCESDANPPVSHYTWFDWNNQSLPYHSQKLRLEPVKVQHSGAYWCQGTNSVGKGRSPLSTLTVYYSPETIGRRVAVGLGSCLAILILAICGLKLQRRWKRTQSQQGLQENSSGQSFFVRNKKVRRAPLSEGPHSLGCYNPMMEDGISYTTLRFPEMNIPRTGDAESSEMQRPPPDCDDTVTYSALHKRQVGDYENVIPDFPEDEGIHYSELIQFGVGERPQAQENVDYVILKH
Description: cell-based or functional assay.

Assay [2] concerns the target T2, human chemokine receptor CCR7 (human, UniProt P32248 25-378).
T2 construct: On CHO, BHK, R1610 and Chem-1 transfectants and, natively, on human PBMC and the leukemia lines JVM-13 and CLL-AAT; also called human CCR7; hCCR7
T2 sequence: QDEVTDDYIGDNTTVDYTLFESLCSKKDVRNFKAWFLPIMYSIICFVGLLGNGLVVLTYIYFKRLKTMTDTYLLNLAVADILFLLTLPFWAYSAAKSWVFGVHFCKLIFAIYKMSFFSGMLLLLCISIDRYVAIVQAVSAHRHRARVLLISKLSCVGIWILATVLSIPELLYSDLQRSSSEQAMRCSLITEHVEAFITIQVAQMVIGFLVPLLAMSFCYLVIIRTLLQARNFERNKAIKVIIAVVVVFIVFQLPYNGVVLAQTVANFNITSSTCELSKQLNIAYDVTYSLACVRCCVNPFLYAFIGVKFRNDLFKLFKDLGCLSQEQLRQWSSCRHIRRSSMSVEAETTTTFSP
The assay is described as follows: IgG1 of Table 16 on human CCR7-expressing cells.

In assay [3] the target is T2, human chemokine receptor CCR7. Description: flow cytometry titration, CHO-human CCR7 cells, anti-human Fc-PE. The protocol: The affinity of IgG1 antibodies to human CCR7 was evaluated by measuring mean fluorescence value (MFI) of cells expressing CCR7 in the presence of varying concentration of antibody in question, upon staining of bound to the cells antibodies with a commercial anti-human antibody-PE conjugate. The data of such experiments are depicted in FIGS. 9, 10, and 11. In these experiments binding of some antibodies to parental cells or cells expressing mouse CCR7 was also quantitatively characterized by obtaining EC₅₀ value (a concentration of IgG1 at which half-maximum MFI is achieved) for each curve using the SoftMaxPro5 program.

B1: mouse anti-human CD22 monoclonal antibody (antibody, V domains shown)
VH: QVQLQQSGAELVKPGASVKMSCKASGYTFTSYWLHWIKQRPGQGLEWIGYINPRNDYTEYNQKFKDKATLTADKSSSTAYMQLSSLTSEDSAVYYCARRDITTFYWGQGTTLTVSS
VL: DIQLTQSPSSLAVSAGENVTMSCKSSQSVLYSANHKNYLAWYQQKPGQSPKLLIYWASTRESGVPDRFTGSGSGTDFTLTISRVQVEDLAIYYCHQYLSSWTFGGGTKLEIK
As to B1, in assay [1], the “EC50 of cell killing with mouse Fab-ZAP, CLL-AAT cells” value worked out at 0.06 nM and the “EC50 of cell killing with mouse Fab-ZAP, JVM-13 cells” value worked out at 0.5 nM.

B2: R707MSF (MSM-R707 HC CDR3 mutant, IgG1) (antibody, V domains shown)
VH: EVQLLESGGGLVQPGGSLRLSCAASGFTFSNYAIHWVRQAPGKGLEWVSAITPRGGYTYYADSVKGRFTISRDNSKNTLYLQMNSLRAEDTAVYYCARGLTMSYTPGFDYWGQGTLVTVSS
VL: not shown
notes: IgG1
In the case of B2, the binding result in assay [2] is recorded as “binds”.

B3: R707MGF (MSM-R707 HC CDR3 mutant, IgG1) (antibody, V domains shown)
VH: EVQLLESGGGLVQPGGSLRLSCAASGFTFSNYAIHWVRQAPGKGLEWVSAITPRGGYTYYADSVKGRFTISRDNSKNTLYLQMNSLRAEDTAVYYCARGLTMGYTPGFDYWGQGTLVTVSS
VL: not shown
notes: IgG1
For B3, the binding result in assay [2] was “binds”.

B4: R707MVF (MSM-R707 HC CDR3 mutant, IgG1) (antibody, V domains shown)
VH: EVQLLESGGGLVQPGGSLRLSCAASGFTFSNYAIHWVRQAPGKGLEWVSAITPRGGYTYYADSVKGRFTISRDNSKNTLYLQMNSLRAEDTAVYYCARGLTMVYTPGFDYWGQGTLVTVSS
VL: not shown
notes: IgG1
For B4, the binding result in assay [2] was “binds”.

B5: R707MQF (MSM-R707 HC CDR3 mutant, IgG1) (antibody, V domains shown)
VH: EVQLLESGGGLVQPGGSLRLSCAASGFTFSNYAIHWVRQAPGKGLEWVSAITPRGGYTYYADSVKGRFTISRDNSKNTLYLQMNSLRAEDTAVYYCARGLTMQYTPGFDYWGQGTLVTVSS
VL: not shown
notes: IgG1
As for B5, the binding result in assay [2] is listed as “binds”.

B6: MSM-R707BL (fully human anti-human CCR7 antibody, IgG1) (antibody, V domains shown)
VH: EVQLLESGGGLVQPGGSLRLSCAASGFTFSNYAIHWVRQAPGKGLEWVSAITPRGGYTYYADSVKGRFTISRDNSKNTLYLQMNSLRAEDTAVYYCARGLTLSYTPGFDYWGQGTLVTVSS
VL: not shown
notes: IgG1 format; HC CDR3 derivative of MSM-R707
In the case of B6, the midpoint of the response in assay [3], the EC50, lay at 2.6 nM.

B7: R707TMF (MSM-R707 HC CDR3 mutant, IgG1) (antibody, V domains shown)
VH: EVQLLESGGGLVQPGGSLRLSCAASGFTFSNYAIHWVRQAPGKGLEWVSAITPRGGYTYYADSVKGRFTISRDNSKNTLYLQMNSLRAEDTAVYYCARGLTTMYTPGFDYWGQGTLVTVSS
VL: not shown
notes: IgG1
On to B7, for which the binding result in assay [2] is “binds”.

B8: R707LMF (MSM-R707 HC CDR3 mutant, IgG1) (antibody, V domains shown)
VH: EVQLLESGGGLVQPGGSLRLSCAASGFTFSNYAIHWVRQAPGKGLEWVSAITPRGGYTYYADSVKGRFTISRDNSKNTLYLQMNSLRAEDTAVYYCARGLTLMYTPGFDYWGQGTLVTVSS
VL: not shown
notes: IgG1
In the case of B8, in assay [2], the binding result is “binds”.

B9: R707IMF (MSM-R707 HC CDR3 mutant, IgG1) (antibody, V domains shown)
VH: EVQLLESGGGLVQPGGSLRLSCAASGFTFSNYAIHWVRQAPGKGLEWVSAITPRGGYTYYADSVKGRFTISRDNSKNTLYLQMNSLRAEDTAVYYCARGLTIMYTPGFDYWGQGTLVTVSS
VL: not shown
notes: IgG1
On to B9, for which the binding result in assay [2] was “binds”.

B10: R707MRF (MSM-R707 HC CDR3 mutant, IgG1) (antibody, V domains shown)
VH: EVQLLESGGGLVQPGGSLRLSCAASGFTFSNYAIHWVRQAPGKGLEWVSAITPRGGYTYYADSVKGRFTISRDNSKNTLYLQMNSLRAEDTAVYYCARGLTMRYTPGFDYWGQGTLVTVSS
VL: not shown
notes: IgG1
Take B10: the binding result in assay [2] is “binds”.

B11: R707MAF (MSM-R707 HC CDR3 mutant, IgG1) (antibody, V domains shown)
VH: EVQLLESGGGLVQPGGSLRLSCAASGFTFSNYAIHWVRQAPGKGLEWVSAITPRGGYTYYADSVKGRFTISRDNSKNTLYLQMNSLRAEDTAVYYCARGLTMAYTPGFDYWGQGTLVTVSS
VL: not shown
notes: IgG1
As for B11, the binding result in assay [2] is recorded as “binds”.

B12: MSM-R707BR (fully human anti-human CCR7 antibody, IgG1) (antibody, V domains shown)
VH: EVQLLESGGGLVQPGGSLRLSCAASGFTFSNYAIHWVRQAPGKGLEWVSAITPRGGYTYYADSVKGRFTISRDNSKNTLYLQMNSLRAEDTAVYYCARGLTRSYTPGFDYWGQGTLVTVSS
VL: not shown
notes: as for B6
On to B12, for which, in assay [3], it took 1.9 nM to reach a half-maximal effect (EC50).

B13: R707FMF (MSM-R707 HC CDR3 mutant, IgG1) (antibody, V domains shown)
VH: EVQLLESGGGLVQPGGSLRLSCAASGFTFSNYAIHWVRQAPGKGLEWVSAITPRGGYTYYADSVKGRFTISRDNSKNTLYLQMNSLRAEDTAVYYCARGLTFMYTPGFDYWGQGTLVTVSS
VL: not shown
notes: IgG1
Regarding B13, in assay [2], the binding result is “binds”.

B14: R707MLF (MSM-R707 HC CDR3 mutant, IgG1) (antibody, V domains shown)
VH: EVQLLESGGGLVQPGGSLRLSCAASGFTFSNYAIHWVRQAPGKGLEWVSAITPRGGYTYYADSVKGRFTISRDNSKNTLYLQMNSLRAEDTAVYYCARGLTMLYTPGFDYWGQGTLVTVSS
VL: not shown
notes: IgG1
With B14, the binding result in assay [2] is “binds”.

B15: R707SMF (MSM-R707 HC CDR3 mutant, IgG1) (antibody, V domains shown)
VH: EVQLLESGGGLVQPGGSLRLSCAASGFTFSNYAIHWVRQAPGKGLEWVSAITPRGGYTYYADSVKGRFTISRDNSKNTLYLQMNSLRAEDTAVYYCARGLTSMYTPGFDYWGQGTLVTVSS
VL: not shown
notes: IgG1
Turning to B15, the binding result in assay [2] is recorded as “binds”.

B16: R707MPF (MSM-R707 HC CDR3 mutant, IgG1) (antibody, V domains shown)
VH: EVQLLESGGGLVQPGGSLRLSCAASGFTFSNYAIHWVRQAPGKGLEWVSAITPRGGYTYYADSVKGRFTISRDNSKNTLYLQMNSLRAEDTAVYYCARGLTMPYTPGFDYWGQGTLVTVSS
VL: not shown
notes: IgG1
Consider B16, for which, in assay [2], the binding result is given as “binds”.

B17: R707WMF (MSM-R707 HC CDR3 mutant, IgG1) (antibody, V domains shown)
VH: EVQLLESGGGLVQPGGSLRLSCAASGFTFSNYAIHWVRQAPGKGLEWVSAITPRGGYTYYADSVKGRFTISRDNSKNTLYLQMNSLRAEDTAVYYCARGLTWMYTPGFDYWGQGTLVTVSS
VL: not shown
notes: IgG1
Turning to B17, the binding result in assay [2] is “binds”.

B18: R707KMF (MSM-R707 HC CDR3 mutant, IgG1) (antibody, V domains shown)
VH: EVQLLESGGGLVQPGGSLRLSCAASGFTFSNYAIHWVRQAPGKGLEWVSAITPRGGYTYYADSVKGRFTISRDNSKNTLYLQMNSLRAEDTAVYYCARGLTKMYTPGFDYWGQGTLVTVSS
VL: not shown
notes: IgG1
On to B18, for which, in assay [2], the binding result was “binds”.

B19: R707MTF (MSM-R707 HC CDR3 mutant, IgG1) (antibody, V domains shown)
VH: EVQLLESGGGLVQPGGSLRLSCAASGFTFSNYAIHWVRQAPGKGLEWVSAITPRGGYTYYADSVKGRFTISRDNSKNTLYLQMNSLRAEDTAVYYCARGLTMTYTPGFDYWGQGTLVTVSS
VL: not shown
notes: IgG1
Turning to B19, the binding result in assay [2] is listed as “binds”.

B20: R707RMF (MSM-R707 HC CDR3 mutant, IgG1) (antibody, V domains shown)
VH: EVQLLESGGGLVQPGGSLRLSCAASGFTFSNYAIHWVRQAPGKGLEWVSAITPRGGYTYYADSVKGRFTISRDNSKNTLYLQMNSLRAEDTAVYYCARGLTRMYTPGFDYWGQGTLVTVSS
VL: not shown
notes: IgG1
Regarding B20, the binding result in assay [2] is on record as “binds”.

B21: R707NMF (MSM-R707 HC CDR3 mutant, IgG1) (antibody, V domains shown)
VH: EVQLLESGGGLVQPGGSLRLSCAASGFTFSNYAIHWVRQAPGKGLEWVSAITPRGGYTYYADSVKGRFTISRDNSKNTLYLQMNSLRAEDTAVYYCARGLTNMYTPGFDYWGQGTLVTVSS
VL: not shown
notes: IgG1
B21: the binding result in assay [2] is on record as “binds”.
